The record followed here is publication PMC3201873.

In general, koff refers to the first-order rate constant of dissociation. High values mean a short-lived complex, low ones a long-lived complex.

The target of test [1] is full-length GyrB from M. tuberculosis (M. tuberculosis). Briefly: far-Western, overlay or dot blot.
The target in test [2] is GyrA–SBP (GyrA fused to a Streptavidin-Binding Peptide) (M. tuberculosis) (UniProt P9WG47). The experiment in a line: SPR.

Sequence of full-length GyrB from M. tuberculosis (M. tuberculosis) (A5TY73 whole entry, the tested form may be a part): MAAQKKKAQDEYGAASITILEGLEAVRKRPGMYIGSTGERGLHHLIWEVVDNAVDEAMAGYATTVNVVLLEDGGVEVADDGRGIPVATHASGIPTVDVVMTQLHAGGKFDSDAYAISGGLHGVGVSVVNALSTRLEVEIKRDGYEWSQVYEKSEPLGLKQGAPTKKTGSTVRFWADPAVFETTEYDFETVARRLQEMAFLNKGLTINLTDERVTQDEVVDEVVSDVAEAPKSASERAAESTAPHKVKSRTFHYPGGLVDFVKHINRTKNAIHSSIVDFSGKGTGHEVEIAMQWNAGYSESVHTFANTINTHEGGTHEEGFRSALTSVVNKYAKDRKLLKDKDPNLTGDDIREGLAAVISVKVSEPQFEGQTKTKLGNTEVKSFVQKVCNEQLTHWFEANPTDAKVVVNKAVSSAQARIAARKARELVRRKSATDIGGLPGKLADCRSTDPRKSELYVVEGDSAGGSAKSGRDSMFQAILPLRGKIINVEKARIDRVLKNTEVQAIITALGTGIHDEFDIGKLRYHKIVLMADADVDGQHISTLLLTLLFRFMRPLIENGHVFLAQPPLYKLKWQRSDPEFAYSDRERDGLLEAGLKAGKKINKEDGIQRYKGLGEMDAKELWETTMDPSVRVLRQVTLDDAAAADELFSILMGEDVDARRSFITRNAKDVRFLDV

Turning to “GyrA–SBP (GyrA fused to a Streptavidin-Binding Peptide) (from UniProt P9WG47 1-838) (natural protein)”, the fold stronger with negatively supercoiled pBR322 than without DNA in test [1] was determined as 9 fold. Regarding “full-length GyrB from M. tuberculosis (natural protein)”, in test [2], the Ka was 6.2e+07 M⁻¹ and the koff turned out to be 0.00101 s⁻¹.
